Measured values published in the supplement of paper PMC10567573.

B1: HMOX1 (parent)
chain: YHIYVALEEEIERNKESPVFAPVY
B2: IFRG15 (parent)
chain: INRADYCPECYPDNPANRSLVLPW

Variants of: B1
Assay: protein stability index of a GFP-peptide fusion (GPS, HEK-293T) (PSI 1-6); higher = more stable
Details: c terminus: a fixed tail appended
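Also: lentivirally expressed fusions sorted by FACS into six bins by GFP to DsRed ratio, PSI derived from sequencing read proportions per bin multiplied by bin number.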

Protein stability index: each site, then its substitutions
Y24: F 1.78, R 3.01, T 2.96, Q 3.09, V 2.51, A 3.11, M 2.22, D 3.35, N 2.9, G 2.83, H 2.48, C 2.23, E 3.33, I 2.49, S 2.84, W 1.98, L 2.31, P 3.47, K 2.69
V23: C 2.12, A 2.27, L 1.77, R 2.87, E 2.63, S 1.85, D 2.69, P 2.69, N 1.78, G 2.1, H 1.84, Y 1.64, M 1.89, Q 1.99, F 1.78, I 1.87, K 2.09, T 1.83, W 2.65
P22: K 2.14, W 1.87, A 2.12, R 2.06, G 1.76, E 2.52, C 1.54, V 3.15, N 1.68, I 2.61, S 1.55, Y 1.77, M 3.18, H 1.98, D 1.8, Q 1.98, F 2.91, T 2.1
F20: N 2.78, V 3.06, Y 2.19, L 2.66, S 2.78, G 3.15, T 2.57, K 2.27, P 2.82, H 2.47, M 2.81, I 2.25, R 2.95, Q 2.42, W 2.41
A21: E 2.41, F 2.21, I 1.87, N 2.31, M 1.99, R 2.2, D 2.91, L 1.58, Y 1.49, W 1.7, V 1.76, T 2, P 2.06, K 2.8, C 1.72, S 2.02, Q 2.41, H 2.06, G 2.43

Variants of: B2
Assay: as above
Details: c terminus: a fixed tail appended

Protein stability index, by site and new letter:
A16: M 1.85, Q 2.23, G 2.04, V 1.85, Y 2.67, D 2.37, P 2.15, W 1.85
R3: C 1.66, K 2.39, N 2.36, I 1.54, E 2.42, L 2.14, Q 2.32, S 2.2, Y 1.9, D 2.59, P 2.42, W 1.35, M 1.91
P23: S 2.83, M 2.5, L 1.57, W 2.4, I 2.89, H 1.65, Y 2.09, N 1.65, R 1.58, T 1.59, C 1.67, E 1.03
D5: E 1.96, W 1.91, K 1.4, Y 1.15, T 1.55, V 2.21, M 1.95
N2: Q 2.03, E 2.11, W 1.61, A 1.65, V 1.91, R 1.26, S 1.82, G 2.15, L 1.79, T 1.78
N14: V 2.04, S 2.72, W 1.03, M 1.68, K 2.25, P 2.28, R 2
E9: R 2.02, T 1.86, Y 1.31, H 1.63, N 1.92, L 2.07, D 2.39, C 2.4
Y6: W 2.3, I 2.24, N 2.86, L 2.05, T 3.14, V 2.46, Q 3.12, C 2.67, G 2.65
C7: F 2.28, M 2.08, A 2.58, Y 2.41, E 2.5, L 1.97, N 2.81, S 3.23, R 2.73, P 2.42, D 3.72
C10: I 1.74, A 2.41, Y 2.31, G 2.81, S 2.92, N 2.62, M 2.83
R18: G 1.99, W 1.69, D 2.88, M 2.06, L 1.83, A 2.17, Y 1.44, E 2.13, S 2.27
L22: D 2.15, W 1.65, G 2.37, V 3, A 2.69, R 2.36, K 2.04, H 1.49, T 2.31, S 1.93, M 2.37
W24: H 2.37, K 2.28, I 1.9, R 1.77, Y 2.12, V 2.53, T 2.3, P 2.62, S 2.9, M 2.23, E 2.99, D 3.89, F 2.3, G 2.69
Y11: V 2.8, P 3.15, G 2.84, C 3.16, H 2.22, I 2.25, E 2.73, W 2.1, M 2.15, L 1.83
A4: T 2.1, I 2.66, K 2.16, F 1.93, Q 2.28, P 2.47, D 1.95
V21: M 2.29, Q 2.12, P 2.92, N 2.3, C 1.82, I 1.97, D 2.43, H 1.84, L 2.53
L20: Y 1.86, D 2.73, W 1.8, F 1.79, I 2.27, N 2.78, A 3.02, C 2.06, M 2.67, R 2.13, P 2.31
I1: S 2.14, E 1.93, L 2.29, Y 1.49, D 2.75, W 1.33, K 2.42, V 1.92, P 2.21, R 2.05, C 2.53, H 2.44
P15: Q 2.1, A 2.9, C 2.02, I 2.29, N 1.97, D 2.12, E 2.58, F 1.44, K 1.74
P8: M 1.71, S 2.46, F 2.1, R 1.99, T 1.82, V 1.95, D 2.64, N 1.88, L 1.85, I 1.5, H 2.3, C 2.07, Y 2.48, W 2.02
N17: R 1.51, F 1.54, C 2.03, G 2.53, A 2.3, L 1.68, S 2.21, E 2.14, T 2.53, V 1.79, M 1.91, D 2.1, Q 1.79, K 1.8, Y 1.74
P12: C 1.69, E 2.46, M 2.08, W 1.72, H 1.91, K 2.1, D 2.7, F 1.78, I 1.56, R 2.05, N 1.66, T 1.98
D13: S 1.82, E 1.86, K 1.68, Q 2.28, L 2.53, M 2.25, R 1.69, H 2.07
S19: A 2.16, Y 1.88, F 1.27, P 2.4, R 1.59, E 2.22, K 2.14, L 2.16, G 1.82, M 1.65, N 1.8
